Reference: paper PMC2808332, “Expanding the Substantial Interactome of NEMO Using Protein Microarrays” (PLoS ONE, 2010)

B1: PIM2 (printed gene product: Pediatric index of mortality 2) (natural protein)
chain: not shown
notes: source: insect cell/baculovirus, purified, spotted (Invitrogen Protoarray v4.0)
B2: Myosin light chain 5, regulatory (natural protein, human, UniProt Q02045-1 1-173, looked up)
chain: MASRKTKKKEGGALRAQRASSNVFSNFEQTQIQEFKEAFTLMDQNRDGFIDKEDLKDTYASLGKTNVKDDELDAMLKEASGPINFTMFLNLFGEKLSGTDAEETILNAFKMLDPDGKGKINKEYIKRLLMSQADKMTAEEVDQMFQFASIDVAGNLDYKALSYVITHGEEKEE
notes: Myosin light chain 5, regulatory, human; also called MYL5; source: insect cell/baculovirus, purified, spotted (Invitrogen Protoarray v4.0)
B3: CUE domain containing 1 (natural protein, human, UniProt Q9NWM3 1-386, looked up)
chain: MTSLFRRSSSGSGGGGTAGARGGGGGTAAPQELNNSRPARQVRRLEFNQAMDDFKTMFPNMDYDIIECVLRANSGAVDATIDQLLQMNLEGGGSSGGVYEDSSDSEDSIPPEILERTLEPDSSDEEPPPVYSPPAYHMHVFDRPYPLAPPTPPPRIDALGSGAPTSQRRYRNWNPPLLGNLPDDFLRILPQQLDSIQGNAGGPKPGSGEGCPPAMAGPGPGDQESRWKQYLEDERIALFLQNEEFMKELQRNRDFLLALERDRLKYESQKSKSSSVAVGNDFGFSSPVPGTGDANPAVSEDALFRDKLKHMGKSTRRKLFELARAFSEKTKMRKSKRKHLLKHQSLGAAASTANLLDDVEGHACDEDFRGRRQEAPKVEEGLREGQ
notes: CUE domain containing 1, human; also called CUEDC1; source: insect cell/baculovirus, purified, spotted (Invitrogen Protoarray v4.0)
B4: Ring finger protein 7 (sensitive to apoptosis gene, SAG) (natural protein, human, UniProt Q9UBF6-1 1-113, looked up)
chain: MADVEDGEETCALASHSGSSGSKSGGDKMFSLKKWNAVAMWSWDVECDTCAICRVQVMDACLRCQAENKQEDCVVVWGECNHSFHNCCMSLWVKQNNRCPLCQQDWVVQRIGK
notes: Ring finger protein 7 (sensitive to apoptosis gene, SAG), human; also called RNF7; source: insect cell/baculovirus, purified, spotted (Invitrogen Protoarray v4.0)
B5: Proteasome (prosome, macropain) subunit, alpha type, 3 (natural protein, human, UniProt P25788-1 1-255, looked up)
chain: MSSIGTGYDLSASTFSPDGRVFQVEYAMKAVENSSTAIGIRCKDGVVFGVEKLVLSKLYEEGSNKRLFNVDRHVGMAVAGLLADARSLADIAREEASNFRSNFGYNIPLKHLADRVAMYVHAYTLYSAVRPFGCSFMLGSYSVNDGAQLYMIDPSGVSYGYWGCAIGKARQAAKTEIEKLQMKEMTCRDIVKEVAKIIYIVHDEVKDKAFELELSWVGELTNGRHEIVPKDIREEAEKYAKESLKEEDESDDDNM
notes: Proteasome (prosome, macropain) subunit, alpha type, 3, human; also called PSMA3; source: insect cell/baculovirus, purified, spotted (Invitrogen Protoarray v4.0)
B6: Leucine zipper and CTNNBIP1 domain containing (natural protein, human, UniProt Q8WZA0-1 1-190, looked up)
chain: MASRGKTETSKLKQNLEEQLDRLMQQLQDLEECREELDTDEYEETKKETLEQLSEFNDSLKKIMSGNMTLVDELSGMQLAIQAAISQAFKTPEVIRLFAKKQPGQLRTRLAEMDRDLMVGKLERDLYTQQKVEILTALRKLGEKLTADDEAFLSANAGAILSQFEKVSTDLGSGDKILALASFEVEKTKK
notes: Leucine zipper and CTNNBIP1 domain containing, human; also called LZIC; source: insect cell/baculovirus, purified, spotted (Invitrogen Protoarray v4.0)
B7: Prefoldin 5, transcript variant 1 (natural protein, human, UniProt Q99471-1 1-154, looked up)
chain: MAQSINITELNLPQLEMLKNQLDQEVEFLSTSIAQLKVVQTKYVEAKDCLNVLNKSNEGKELLVPLTSSMYVPGKLHDVEHVLIDVGTGYYVEKTAEDAKDFFKRKIDFLTKQMEKIQPALQEKHAMKQAVMEMMSQKIQQLTALGAAQATAKA
notes: Prefoldin 5, human; also called PFDN5; source: insect cell/baculovirus, purified, spotted (Invitrogen Protoarray v4.0)
B8: Leupaxin (natural protein, human, UniProt O60711-1 1-386, looked up)
chain: MEELDALLEELERSTLQDSDEYSNPAPLPLDQHSRKETNLDETSEILSIQDNTSPLPAQLVYTTNIQELNVYSEAQEPKESPPPSKTSAAAQLDELMAHLTEMQAKVAVRADAGKKHLPDKQDHKASLDSMLGGLEQELQDLGIATVPKGHCASCQKPIAGKVIHALGQSWHPEHFVCTHCKEEIGSSPFFERSGLAYCPNDYHQLFSPRCAYCAAPILDKVLTAMNQTWHPEHFFCSHCGEVFGAEGFHEKDKKPYCRKDFLAMFSPKCGGCNRPVLENYLSAMDTVWHPECFVCGDCFTSFSTGSFFELDGRPFCELHYHHRRGTLCHGCGQPITGRCISAMGYKFHPEHFVCAFCLTQLSKGIFREQNDKTYCQPCFNKLFPL
notes: Leupaxin, human; also called LPXN; source: insect cell/baculovirus, purified, spotted (Invitrogen Protoarray v4.0)
B9: Calbindin D28K (natural protein, human, UniProt P05937-1 1-261, looked up)
chain: MAESHLQSSLITASQFFEIWLHFDADGSGYLEGKELQNLIQELQQARKKAGLELSPEMKTFVDQYGQRDDGKIGIVELAHVLPTEENFLLLFRCQQLKSCEEFMKTWRKYDTDHSGFIETEELKNFLKDLLEKANKTVDDTKLAEYTDLMLKLFDSNNDGKLELTEMARLLPVQENFLLKFQGIKMCGKEFNKAFELYDQDGNGYIDENELDALLKDLCEKNKQDLDINNITTYKKNIMALSDGGKLYRTDLALILCAGDN
notes: also called CALB1; source: insect cell/baculovirus, purified, spotted (Invitrogen Protoarray v4.0)
B10: Chromosome 9 open reading frame 32 (natural protein, human, UniProt Q9BV86 1-223, looked up)
chain: MTSEVIEDEKQFYSKAKTYWKQIPPTVDGMLGGYGHISSIDINSSRKFLQRFLREGPNKTGTSCALDCGAGIGRITKRLLLPLFREVDMVDITEDFLVQAKTYLGEEGKRVRNYFCCGLQDFTPEPDSYDVIWIQWVIGHLTDQHLAEFLRRCKGSLRPNGIIVIKDNMAQEGVILDDVDSSVCRDLDVVRRIICSAGLSLLAEERQENLPDEIYHVYSFALR
notes: Chromosome 9 open reading frame 32, human; also called C9ORF32; source: insect cell/baculovirus, purified, spotted (Invitrogen Protoarray v4.0)
B11: Growth arrest and DNA-damage-inducible, gamma (natural protein, human, UniProt O95257 1-159, looked up)
chain: MTLEEVRGQDTVPESTARMQGAGKALHELLLSAQRQGCLTAGVYESAKVLNVDPDNVTFCVLAAGEEDEGDIALQIHFTLIQAFCCENDIDIVRVGDVQRLAAIVGAGEEAGAPGDLHCILISNPNEDAWKDPALEKLSLFCEESRSVNDWVPSITLPE
notes: Growth arrest and DNA-damage-inducible, gamma, human; also called GADD45G; source: insect cell/baculovirus, purified, spotted (Invitrogen Protoarray v4.0)

Target: T1, NEMO (NF-κB essential modulator), tag-free, biotinylated (human, UniProt Q9Y6K9 1-419, biotin (in vitro biotinylation kit, biotin:NEMO molar ratio 9:1))
T1 construct: NEMO, NF-κB essential modulator, human, 48 kDa; also called biotinylated NEMO; biotin-NEMO; source: E. coli BL21(DE3), purified (glutathione sepharose), GST removed with thrombin, biotinylated in vitro
Assay: peptide or protein array; Invitrogen Protoarray v4.0, about 8,400 human proteins spotted on nitrocellulose-coated glass slides; 10 µg biotinylated tag-free NEMO in 120 µl probing buffer (PBS, 0.5 mM DTT, 5 mM MgCl2, 5% glycerol, 0.05% Triton X-100), 4°C, 1.5 h; bound NEMO detected with labelled streptavidin; hits Z-score > 3, hits of the biotin-GST control array subtracted
Conditions: both partners purified

| Binder | binding result |
| --- | --- |
| B1 | binds |
| B2 | binds |
| B3 | binds |
| B4 | binds |
| B5 | binds |
| B6 | binds |
| B7 | binds |
| B8 | binds |
| B9 | binds |
| B10 | binds |
| B11 | binds |
